Results on three molecules are retold here after patent US20240026004A1 (SHANGHAI HUAOTA BIOPHARMACEUTICAL, published 2024).

Experiment [1] has as its target T1, human TGF-β1 (human, UniProt P01137 279-390).
T1 construct: also called TGF-β1 (ACRO, TG1-H4212); free TGF-β protein
The experiment is described as follows: ELISA, TGF-β1 coated at 0.5 µg/ml, HRP anti-human IgG detection, OD450.
Method: (§1) After washing with PBST, into the plates was added HRP-labeled anti-human IgG secondary antibody (1:5000 dilution) at 100 μl/well, reacted at room temperature for 30 min, and then washed with PBST. After developing with TMB color development solution for 5 min, the reaction was terminated with sulfuric acid, and OD450 value was read by a microplate reader.

A further experiment has as its target T2, Human LAP (human, UniProt P01137 30-278).
T2 construct: domain: LAP; also called precursor of TGF-β1 (Human LAP)
The experiment is described as follows: SPR (BIAcore), HB0028 captured on Protein A chip, TGF-β protein as analyte.

A further experiment deals with T3, Mouse precursor TGF-β1 (mouse, UniProt P04202 30-390, limits assumed).
T3 construct: Latent/precursor form as printed; also called Mouse Latent TGF-β1
The description is as above.

The target in a further experiment is T4, Rat PD-L1 (rat, UniProt D4AE25 19-239).
T4 construct: also called PD-L1 in rats
In words: SPR (BIAcore), HB0028 captured on anti-human IgG (Fc) chip, PD-L1 as analyte.

A further experiment has as its target T5, Rabbit PD-L1 (rabbit, UniProt G1SUI3 19-236).
T5 construct: also called PD-L1 in rabbits
T5 sequence: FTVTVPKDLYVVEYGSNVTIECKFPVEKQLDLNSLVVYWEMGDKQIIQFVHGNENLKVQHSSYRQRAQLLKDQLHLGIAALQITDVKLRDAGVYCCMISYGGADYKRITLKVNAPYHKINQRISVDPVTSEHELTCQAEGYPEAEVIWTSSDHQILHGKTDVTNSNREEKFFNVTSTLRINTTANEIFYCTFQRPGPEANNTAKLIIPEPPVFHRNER
The description is as above.

Another experiment has as its target T6, Mouse PD-L1 (mouse, UniProt Q9EP73 19-238, limits assumed).
T6 construct: also called PD-L1 in mice
Described as above.

In the next experiment the target is Mouse/Rat TGF-β1 (mouse/rat, UniProt P04202 279-390). In words: SPR (BIAcore), HB0028 captured on Protein A chip, TGF-β protein as analyte, 1:1 fit.
In the next experiment the target is T7, Human TGF-β2 (human, UniProt P61812 303-414).
T7 sequence (looked up): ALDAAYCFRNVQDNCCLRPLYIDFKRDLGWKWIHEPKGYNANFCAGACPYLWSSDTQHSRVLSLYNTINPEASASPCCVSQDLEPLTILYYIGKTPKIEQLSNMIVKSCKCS
Described as above.

A further experiment addresses T8, Mouse/Rat TGF-β2 (mouse/rat, UniProt P27090 303-414).
T8 sequence (looked up): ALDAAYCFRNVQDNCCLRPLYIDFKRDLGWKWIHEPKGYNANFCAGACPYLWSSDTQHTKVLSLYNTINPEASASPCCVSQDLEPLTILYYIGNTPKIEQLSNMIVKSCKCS
Described as above.

Experiment [2] deals with T1, human TGF-β1. Described as above.
Method: (§2) Flow rate: 30 μl/min, binding: 120 s, dissociation: 600 s, analyzing the kinetic constants by Fit local using a 1:1 binding mode.
Experiment [3] deals with Human PD-L1 (BIAcore analyte) (human, UniProt Q9NZQ7 19-238, limits assumed). The experiment is described as follows: SPR (BIAcore), HB0028 captured on anti-human IgG (Fc) chip, PD-L1 as analyte, 1:1 fit.
Method: as §2
The next experiment concerns the target T9, Monkey PD-L1 (monkey).
T9 construct: also called PD-L1 in monkeys
Described as above.

In experiment [4] the target is T10, human PD-L1 on CHO-K1 cells (human, UniProt Q9NZQ7 19-290).
T10 construct: whole, on cells; also called CHO-K1 cells overexpressing human PD-L1; CHO-K1-OS8-PD-L1-8D6 cells
The experiment is described as follows: flow cytometry on CHO-K1 cells overexpressing human PD-L1, PE anti-human IgG detection, median fluorescence intensity.
Method: CHO-K1 cells overexpressing human PD-L1 were taken and resuspended to 1×10⁶/ml and added into a 96-well plate at 20 μl/well.

For experiment [5], the target named is T10, human PD-L1 on CHO-K1 cells. In words: dual-target flow cytometry: sample pre-mixed with 3 µg/ml human TGF-β1, then CHO-K1 cells overexpressing human PD-L1, detection with PE anti-human TGF-β1 antibody (signal needs PD-L1 and TGF-β1 bound at once).
Method: After then, CHO-K1 cells overexpressing human PD-L1 were taken and resuspended to 1×10⁶/ml, added into a 96-well plate at 20 μl/well, and incubated for min after being mixed uniformly. The plate was washed twice by centrifugation with 1% BSA-PBS. Into each well was added 20 μl of PE fluorescence labeled anti-human TGF-β1 secondary antibody (1:100), incubated at room temperature for 15 min, washed three times by centrifugation, and then tested for the emission intensity at 580 nm by a flow cytometer Canto II (BD).
The target in the next experiment is T11, human TGF-β3 (human, UniProt P10600 301-412).
T11 construct: also called TGF-β3 (R&D, 8420-B3-025)
T11 sequence (looked up): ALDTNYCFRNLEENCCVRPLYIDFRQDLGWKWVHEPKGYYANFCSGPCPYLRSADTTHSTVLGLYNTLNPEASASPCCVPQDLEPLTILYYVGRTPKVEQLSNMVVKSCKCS
The experiment is described as follows: ELISA, TGF-β3 coated at 0.5 µg/ml, HRP anti-human IgG detection, OD450.

T10 sequence (Q9NZQ7 19-290): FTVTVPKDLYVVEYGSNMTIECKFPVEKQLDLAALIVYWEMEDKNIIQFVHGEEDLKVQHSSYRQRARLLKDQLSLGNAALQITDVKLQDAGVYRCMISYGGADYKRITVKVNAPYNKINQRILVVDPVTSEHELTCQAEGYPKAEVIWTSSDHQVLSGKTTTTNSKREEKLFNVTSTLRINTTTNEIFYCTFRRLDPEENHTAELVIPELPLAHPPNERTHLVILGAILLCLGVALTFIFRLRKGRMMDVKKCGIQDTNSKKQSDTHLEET
T1 sequence (P01137 279-390 limits assumed): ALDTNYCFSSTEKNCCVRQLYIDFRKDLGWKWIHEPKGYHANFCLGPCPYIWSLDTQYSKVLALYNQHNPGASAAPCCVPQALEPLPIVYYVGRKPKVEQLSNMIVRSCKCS
Chain of Mouse/Rat TGF-β1 (P04202 279-390 limits assumed): as the sequence (P01137 279-390 limits assumed) above, with A75S counted along it
T4 sequence (D4AE25 entry or part of it limits assumed): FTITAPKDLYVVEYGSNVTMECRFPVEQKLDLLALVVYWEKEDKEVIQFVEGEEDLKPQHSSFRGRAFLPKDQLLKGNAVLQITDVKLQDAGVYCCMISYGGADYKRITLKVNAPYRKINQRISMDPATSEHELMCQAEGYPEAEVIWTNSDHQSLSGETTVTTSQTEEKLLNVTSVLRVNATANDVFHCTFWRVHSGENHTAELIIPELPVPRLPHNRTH
T3 sequence (P04202 30-390 limits assumed): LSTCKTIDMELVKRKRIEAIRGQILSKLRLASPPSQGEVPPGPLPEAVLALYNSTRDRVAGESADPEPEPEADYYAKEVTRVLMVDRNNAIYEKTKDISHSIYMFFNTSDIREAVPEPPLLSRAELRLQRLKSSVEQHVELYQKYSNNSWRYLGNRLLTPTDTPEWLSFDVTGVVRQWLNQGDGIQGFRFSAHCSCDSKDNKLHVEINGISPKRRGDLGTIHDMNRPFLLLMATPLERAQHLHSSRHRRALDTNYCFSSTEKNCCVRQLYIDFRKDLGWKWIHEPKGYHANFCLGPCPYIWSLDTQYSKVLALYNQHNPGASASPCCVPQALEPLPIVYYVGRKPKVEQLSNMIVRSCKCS
T2 sequence (P01137 30-278 limits assumed): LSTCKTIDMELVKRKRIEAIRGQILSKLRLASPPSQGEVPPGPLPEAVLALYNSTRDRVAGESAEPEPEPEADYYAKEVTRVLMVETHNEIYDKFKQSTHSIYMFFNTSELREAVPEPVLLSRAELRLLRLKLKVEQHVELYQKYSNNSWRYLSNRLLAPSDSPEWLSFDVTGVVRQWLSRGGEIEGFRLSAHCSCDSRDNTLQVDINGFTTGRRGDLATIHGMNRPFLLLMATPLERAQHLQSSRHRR
T6 sequence (Q9EP73 19-238 limits assumed): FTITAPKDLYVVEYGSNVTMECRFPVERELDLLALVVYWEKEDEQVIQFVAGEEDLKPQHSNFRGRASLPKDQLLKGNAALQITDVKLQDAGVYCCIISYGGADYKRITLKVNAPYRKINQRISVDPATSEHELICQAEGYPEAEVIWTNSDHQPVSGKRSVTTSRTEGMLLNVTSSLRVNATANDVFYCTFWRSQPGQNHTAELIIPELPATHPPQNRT
Chain of Human PD-L1 (BIAcore analyte) (Q9NZQ7 19-238 limits assumed): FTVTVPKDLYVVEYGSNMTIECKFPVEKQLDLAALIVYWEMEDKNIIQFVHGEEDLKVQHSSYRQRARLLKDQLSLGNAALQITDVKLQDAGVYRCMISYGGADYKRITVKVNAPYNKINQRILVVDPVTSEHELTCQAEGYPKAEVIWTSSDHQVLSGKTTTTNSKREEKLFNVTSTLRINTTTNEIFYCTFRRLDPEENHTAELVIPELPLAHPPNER
Method for Human LAP: as §2
Method for Human TGF-β2: as §2
Method for Monkey PD-L1: as §2
Method for Mouse PD-L1: as §2
Method for Mouse precursor TGF-β1: as §2
Method for Mouse/Rat TGF-β1: as §2
Method for Mouse/Rat TGF-β2: as §2
Method for Rabbit PD-L1: as §2
Method for Rat PD-L1: as §2
Method for human TGF-β3: as §1

B1: TGFβRII (Fc fusion)
chain: TIPPHVQKSVNNDMIVTDNNGAVKFPQLCKFCDVRFSTCDNQKSCMSNCSITSICEKPQEVCVAVWRKNDENITLETVCHDPKLPYHDFILEDAASPKCIMKEKKKPGETFFMCSCSSDECNDNIIFSEEYNTSNPD
With B1, the EC50 in the experiment with human TGF-β1 [1] was found to be 0.652 nM.

B2: HB0028 (bispecific antibody, human IgG1, kappa)
heavy: not shown
light: DVVMTQTPLSLSVTPGQPASISCKSSQSLANSYGNTYLSWYLHKPGQSPQLLIYGISNRFSGVPDRFSGSGSGTDFTLKISRVEAEDVGVYYCLQGTHQPPTFGQGTKLEIKRTVAAPSVFIFPPSDEQLKSGTASVVCLLNNFYPREAKVQWKVDNALQSGNSQESVTEQDSKDSTYSLSSTLTLSKADYEKHKVYACEVTHQGLSSPVTKSFNRGEC
notes: also called N-fusion PD-L1/TGF-β bispecific antibody; heavy chain 500054 + light chain 400085
For B2, the binding result with Human LAP, with Mouse precursor TGF-β1, with Rat PD-L1, in the experiment with Rabbit PD-L1 and in the experiment with Mouse PD-L1 was “no binding” each time. Further, the values for the EC50 (in the experiment with human TGF-β1 [1]; in experiment [4]; in experiment [5]) were 0.347 nM, 3.77 nM and 4.22 nM, respectively. Besides, the Kd in the experiment with Mouse/Rat TGF-β1 was found to be 0.00275 nM; in the experiment with Human TGF-β2, 1.56 nM; in the experiment with Mouse/Rat TGF-β2, 1.97 nM; with human TGF-β1 [2] it was 0.0114 nM; in experiment [3] it was 2.45 nM; with Monkey PD-L1 it was 5.87 nM.

B3: HB0029 (bispecific antibody, human IgG1, kappa)
heavy: not shown
light: DVVMTQTPLSLSVTPGQPASISCKSSQSLANSYGNTYLSWYLHKPGQSPQLLIYGISNRFSGVPDRFSGSGSGTDFTLKISRVEAEDVGVYYCLQGTHQPPTFGQGTKLEIKRTVAAPSVFIFPPSDEQLKSGTASVVCLLNNFYPREAKVQWKVDNALQSGNSQESVTEQDSKDSTYSLSSTLTLSKADYEKHKVYACEVTHQGLSSPVTKSFNRGEC
notes: Heavy chain from N to C: VH of HB0023, wild-type human IgG1 constant region, GS linker, human TGF-βRII ECD 24-159; Same light chain as HB0028; also called C-fusion PD-L1/TGF-β bispecific antibody; heavy chain 500055 + light chain 400085
For B3, the EC50 with human TGF-β1 [1] was determined as 0.955 nM; with human TGF-β3 it was 1.51 nM; in experiment [4] it was 1.85 nM; in experiment [5] it was 1.61 nM.
